# Source: IntAct's records for PubMed 16004875
# B1: Vesicle-associated membrane protein-associated protein SCS2 (Saccharomyces cerevisiae), P40075 (parent)
# chain: MSAVEISPDVLVYKSPLTEQSTEYASISNNSDQTIAFKVKTTAPKFYCVRPNAAVVAPGETIQVQVIFLGLTEEPAADFKCRDKFLVITLPSPYDLNGKAVADVWSDLEAEFKQQAISKKIKVKYLISPDVHPAQNQNIQENKETVEPVVQDSEPKEVPAVVNEKEVPAEPETQPPVQVKKEEVPPVVQKTVPHENEKQTSNSTPAPQNQIKEAATVPAENESSSMGIFILVALLILVLGWFYR
# partner: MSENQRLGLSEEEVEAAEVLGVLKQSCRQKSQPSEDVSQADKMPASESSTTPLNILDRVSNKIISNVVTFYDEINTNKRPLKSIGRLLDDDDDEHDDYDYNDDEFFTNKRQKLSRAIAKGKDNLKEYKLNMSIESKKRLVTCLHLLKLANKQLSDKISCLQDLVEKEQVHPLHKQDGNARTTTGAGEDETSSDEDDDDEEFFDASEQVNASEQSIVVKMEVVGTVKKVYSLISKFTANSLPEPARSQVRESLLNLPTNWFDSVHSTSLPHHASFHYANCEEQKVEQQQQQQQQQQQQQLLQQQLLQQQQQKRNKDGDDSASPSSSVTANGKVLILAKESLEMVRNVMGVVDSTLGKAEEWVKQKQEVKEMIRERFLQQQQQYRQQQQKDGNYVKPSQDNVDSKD
# B2: Vesicle-associated membrane protein-associated protein A (Rattus norvegicus (Rat)), Q9Z270 (parent)
# chain: MASASGAMAKHEQILVLDPPSDLKFKGPFTDVVTTNLKLQNPSDRKVCFKVKTTAPRRYCVRPNSGVIDPGSIVTVSVMLQPFDYDPNEKSKHKFMVQTIFAPPNISDMEAVWKEAKPDELMDSKLRCVFEMPNENDKLNDMEPSKAVPLNASKQDGPLPKPHSVSLNDTETRKLMEECKRLQGEMMKLSEENRHLRDEGLRLRKVAHSDKPGSTSAVSFRDNVTSPLPSLLVVIAAIFIGFFLGKFIL
# partner: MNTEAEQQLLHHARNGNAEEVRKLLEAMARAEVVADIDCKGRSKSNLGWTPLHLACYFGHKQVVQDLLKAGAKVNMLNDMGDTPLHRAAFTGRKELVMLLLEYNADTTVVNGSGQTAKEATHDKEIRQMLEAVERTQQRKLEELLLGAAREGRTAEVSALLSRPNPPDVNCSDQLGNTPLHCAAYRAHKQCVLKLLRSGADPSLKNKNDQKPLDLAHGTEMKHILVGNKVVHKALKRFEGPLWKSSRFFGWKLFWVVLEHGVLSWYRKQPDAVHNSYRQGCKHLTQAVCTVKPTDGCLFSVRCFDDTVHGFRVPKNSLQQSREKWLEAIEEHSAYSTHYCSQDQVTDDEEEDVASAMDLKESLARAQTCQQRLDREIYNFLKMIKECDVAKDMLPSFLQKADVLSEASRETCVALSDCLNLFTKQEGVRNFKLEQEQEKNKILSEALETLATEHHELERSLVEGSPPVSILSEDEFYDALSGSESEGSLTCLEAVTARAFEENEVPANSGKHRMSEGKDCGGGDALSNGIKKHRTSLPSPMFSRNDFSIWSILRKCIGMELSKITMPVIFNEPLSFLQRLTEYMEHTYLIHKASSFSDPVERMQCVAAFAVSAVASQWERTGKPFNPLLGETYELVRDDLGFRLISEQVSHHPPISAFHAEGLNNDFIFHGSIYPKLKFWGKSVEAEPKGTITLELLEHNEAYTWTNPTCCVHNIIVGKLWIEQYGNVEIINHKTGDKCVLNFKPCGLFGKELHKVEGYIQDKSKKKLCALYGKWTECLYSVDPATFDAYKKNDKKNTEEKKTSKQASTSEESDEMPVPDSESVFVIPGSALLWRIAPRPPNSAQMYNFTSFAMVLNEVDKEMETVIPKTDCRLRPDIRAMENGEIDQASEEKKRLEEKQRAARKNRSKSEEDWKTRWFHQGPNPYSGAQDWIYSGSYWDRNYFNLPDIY
# Variants of: B1
# Conditions: with opi1_yeast OPI1, P21957
row,effect of a mutation on the interaction,Variant
1,disrupting interaction,K84D;L86D

# Variants of: B2
# Conditions: with osbl1_rat Osbpl1a
row,effect of a mutation on the interaction,Variant
1,disrupting interaction,K94D;M96D
